Experimental data as given in patent US20190233519A1.

Tests used:
[1] = molecular target: biotin-labeled hCTLA-4/Fc protein (UniProt P16410); test: FACS competition, biotin hCTLA-4-Fc on CHO cells expressing human B7-1
CTLA-4-His protein = CTLA-4-His protein (UniProt P16410); test: SPR, antibody captured by Fc, CTLA-4-His as analyte
CTLA-4-His protein, sequence (P16410 37-161 limits assumed): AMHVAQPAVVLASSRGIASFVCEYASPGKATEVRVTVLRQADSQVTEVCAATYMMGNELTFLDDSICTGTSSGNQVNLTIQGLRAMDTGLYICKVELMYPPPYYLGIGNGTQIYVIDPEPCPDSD

biotin-labeled hCTLA-4/Fc protein, sequence (P16410 37-161): as the sequence (P16410 37-161 limits assumed) above

IC50 [1]: 8.5 nM
Kd (CTLA-4-His protein): 17.3 nM
Substance: ipilimumab (YERVOY®) (antibody)
